This is an account of results in patent publication US20130189280A1.

pKd: −log10 of the molar value.

Assay [1] deals with human hemoglobin (Sigma) (human) (UniProt P69905).
Assay [2] deals with complex of recombinant human serum albumin and hemin (rHSA-heme) (human) (UniProt P02768). The assay can be described thus: ELISA, rHSA-heme against rHSA on immobilized K3 (FIG. 22). A general note: ELISA stands for enzyme-linked immunosorbent assay.
Assay [3] concerns the target fibrinogen from human plasma (Sigma) (human) (UniProt P02671). The assay can be described thus: ELISA, fibrinogen titrated on immobilized K3; apparent Kd (FIG. 21).
Assay [4] has the same target. The assay can be described thus: ELISA, fibrinogen titrated on immobilized K1; apparent Kd (FIG. 21).

For the substance “K3 domain (Ala1427-Gly1602) of lysine gingipain Kgp from Porphyromonas gingivalis W83, recombinant, non-tagged (from UniProt Q51817 1427-1602)”, the results for the negative-log Kd (pKd) in assay [1] and in assay [3] were 6.81 and 6.24, respectively. Besides, the fold increase of binding affinity against rHSA without heme in assay [2] was 9 fold.
Consider “K1 domain (Gly982-Gly1154) of lysine gingipain Kgp from Porphyromonas gingivalis W83, recombinant (from UniProt Q51817 982-1154)”, for which the pKd (usually the negative decadic logarithm of the Kd, by convention in mol/L) is 6.44 in assay [1] and 5.82 in assay [4].
